Consider one molecule from patent US20180148504A1.

For experiment [1], the target named is recombinant purified FRα (ECL assay calibrator) (human) (UniProt P15328). The experiment is described as follows: ECL sandwich competition; competitors 9F3 capture / 24F12 detection; FRα standard STD01; MORAb-003 10 µg/mL.
Experiment [2] shares this target. The experiment is described as follows: ECL sandwich competition; competitors 9F3 capture / 24F12 detection; FRα standard STD01; MORAb-003 50 µg/mL.
For experiment [3] the target is unchanged. Nature of the experiment: ECL sandwich competition; competitors 9F3 capture / 24F12 detection; FRα standard STD04; MORAb-003 10 µg/mL.
The target is the same in experiment [4]. Nature of the experiment: ECL sandwich competition; competitors 9F3 capture / 24F12 detection; FRα standard STD04; MORAb-003 50 µg/mL.
Experiment [5] shares this target. Nature of the experiment: ECL sandwich competition; competitors 9F3 capture / 24F12 detection; FRα standard STD06; MORAb-003 10 µg/mL.
Experiment [6] shares this target. Nature of the experiment: ECL sandwich competition; competitors 9F3 capture / 24F12 detection; FRα standard STD06; MORAb-003 50 µg/mL.
The target is the same in experiment [7]. Nature of the experiment: ECL sandwich competition; competitors 9F3 capture / 24F12 detection; FRα standard STD07; MORAb-003 50 µg/mL.
Experiment [8] has the same target. Nature of the experiment: ECL sandwich competition; competitors 9F3 capture / 24F12 detection; FRα standard STD08; MORAb-003 50 µg/mL.
Experiment [9] has as its target endogenous folate receptor alpha in human serum and plasma samples (human) (UniProt P15328). The experiment is described as follows: ECL sandwich competition; competitors 24H8.D3 capture / 19D4.B7 detection; plasma samples; MORAb-003 100 µg/mL.
For experiment [10] the target is unchanged. The experiment is described as follows: ECL sandwich capture 24H8.D3 / detection 19D4.B7; serum incubated overnight with 10 µg/mL MORAb-003.
For experiment [11] the target is unchanged. The experiment is described as follows: ECL sandwich capture 24H8.F3 / detection 19D4.B7; serum incubated overnight with 10 µg/mL MORAb-003.
Experiment [12] addresses recombinant purified FRα (ECL assay calibrator) (human) (UniProt P15328). Nature of the experiment: ECL sandwich capture 24H8.D3 / detection 6A2.G7; calibrator incubated overnight with 10 µg/mL MORAb-003.
In experiment [13] the target is endogenous folate receptor alpha in human serum and plasma samples (human) (UniProt P15328). The experiment is described as follows: ECL sandwich capture 1A8.G11.E7 / detection 24H8.F3; serum incubated overnight with 10 µg/mL MORAb-003.
Experiment [14] has as its target recombinant purified FRα (ECL assay calibrator) (human) (UniProt P15328). The experiment is described as follows: ECL sandwich capture 6A2.G7 / detection 19D4.B7; calibrator incubated overnight with 10 µg/mL MORAb-003.
The target in experiment [15] is endogenous folate receptor alpha in human serum and plasma samples (human) (UniProt P15328). The experiment is described as follows: ECL sandwich capture 1A8.G11.E7 / detection 19D4.B7; serum incubated overnight with 10 µg/mL MORAb-003.
The target in experiment [16] is recombinant purified FRα (ECL assay calibrator) (human) (UniProt P15328). Nature of the experiment: ECL sandwich capture 19D4.B7 / detection 19D2.G9; calibrator incubated overnight with 10 µg/mL MORAb-003.
Experiment [17] has the same target. Nature of the experiment: ECL sandwich capture 1A8.G11.E7 / detection 6A2.G7; calibrator incubated overnight with 10 µg/mL MORAb-003.
Experiment [18] has the same target. The experiment is described as follows: ECL sandwich capture 6A2.G7 / detection 1A8.G11.E7; calibrator incubated overnight with 10 µg/mL MORAb-003.
Experiment [19] shares this target. The experiment is described as follows: ECL sandwich capture 1C6.E12.G8 / detection 19D4.B7; calibrator incubated overnight with 10 µg/mL MORAb-003.
For experiment [20] the target is unchanged. The experiment is described as follows: ECL sandwich capture 1D2.G8.G10 / detection 19D4.B7; calibrator incubated overnight with 10 µg/mL MORAb-003.
For experiment [21] the target is unchanged. Nature of the experiment: ECL sandwich capture 6A2.G7 / detection 30G6.G6.G4.E9; calibrator incubated overnight with 10 µg/mL MORAb-003.
For experiment [22] the target is unchanged. Nature of the experiment: ECL sandwich capture 30G6.G6.G4.E9 / detection 24H8.D3; calibrator incubated overnight with 10 µg/mL MORAb-003.
The target is the same in experiment [23]. Nature of the experiment: ECL sandwich capture 30G6.G6.G4.E9 / detection 1C6.E12.G8; calibrator incubated overnight with 10 µg/mL MORAb-003.
The target is the same in experiment [24]. The experiment is described as follows: ECL sandwich capture 1A8.G11.E7 / detection 30G6.G6.G4.E9; calibrator incubated overnight with 10 µg/mL MORAb-003.

Chain of recombinant purified FRα (ECL assay calibrator) (human) (P15328 25-234 limits assumed): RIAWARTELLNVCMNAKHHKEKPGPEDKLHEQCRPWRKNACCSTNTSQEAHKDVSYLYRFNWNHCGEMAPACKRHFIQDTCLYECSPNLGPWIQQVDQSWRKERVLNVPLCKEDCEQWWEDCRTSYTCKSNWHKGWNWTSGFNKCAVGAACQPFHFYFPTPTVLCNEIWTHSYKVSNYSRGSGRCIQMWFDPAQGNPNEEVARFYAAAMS
Chain of endogenous folate receptor alpha in human serum and plasma samples (human) (P15328 25-234 limits assumed, form in doubt): as the sequence (P15328 25-234 limits assumed) above

B1: farletuzumab (MORAb-003) (antibody, part only; not given: Constant regions, V domains shown, not shown: another chain or arm of the molecule)
VH: EVQLVESGGGVVQPGRSLRLSCSASGFTFSGYGLSWVRQAPGKGLEWVAMISSGGSYTYYADSVKGRFAISRDNAKNTLFLQMDSLRPEDTGVYFCARHGDDPAWFAYWGQGTPVTVSS
VL: DIQLTQSPSSLSASVGDRVTITCSVSSSISSNNLHWYQQKPGKAPKPWIYGTSNLASGVPSRFSGSGSGTDYTFTISSLQPEDIATYYCQQWSSYPYMYTFGQGTKVEIK
In the case of B1, the % of signal without MORAb-003 (MORAb-003 interference) was 68% in experiment [1]; 54% in experiment [2]; 73% in experiment [3]; 57% in experiment [4]; 103% in [5]; 78% in [6]. Moreover, the % of signal without MORAb-003 (MORAb-003 interference) in experiment [7] amounted to 88%; in experiment [8] it was 115%. Also, in [9], the percent inhibition (median, plasma) turned out to be 4%. The Drug suppression of serum in experiment [10] is -2.8%; in [11], -13%; in [13] it was -61.3%; in [15], -4.78%. Further, the Drug Suppression of Cal Signal at 500 pg/mL was -15% in experiment [12]; -13% in experiment [14]; -19% in [16]; 16% in experiment [17]; 2% in experiment [18]; -11% in experiment [19]. The Drug Suppression of Cal Signal at 500 pg/mL is -12% in experiment [20]; -1% in [21]; -2% in experiment [22]; -7% in experiment [23]; -6% in [24].
